How the values were obtained:
[1] = target: T1, myc-tagged TRIM25 WT (tripartite motif-containing protein 25) (UniProt Q14258 1-630); assay: co-IP; myc IP (anti-myc beads) of myc-TRIM25 WT from lysates of ZAP KO 293T cells co-transfected with FLAG-ZAPS or FLAG-ZAPL WT or mutants; FLAG-ZAP detected by immunoblot; FLAG IP buffer (100 mM Tris-HCl 8.0, 150 mM NaCl, 5 mM EDTA, 1 mM DTT, 5% glycerol, 0.1% NP-40), 4°C, 45 min; FLAG IP band divided by myc IP band (ImageJ); details: partners not purified
T1 construct: tripartite motif-containing protein 25 (TRIM25), ubiquitin E3 ligase; full-length TRIM25 provided by J. U. Jung (Gack et al., 2007); source: ZAP KO 293T or TRIM25 KO 293T cells, transfected (pcDNA3.1-myc), in lysate; not shown: myc, N-terminal, kept
T1 sequence (Q14258 whole entry): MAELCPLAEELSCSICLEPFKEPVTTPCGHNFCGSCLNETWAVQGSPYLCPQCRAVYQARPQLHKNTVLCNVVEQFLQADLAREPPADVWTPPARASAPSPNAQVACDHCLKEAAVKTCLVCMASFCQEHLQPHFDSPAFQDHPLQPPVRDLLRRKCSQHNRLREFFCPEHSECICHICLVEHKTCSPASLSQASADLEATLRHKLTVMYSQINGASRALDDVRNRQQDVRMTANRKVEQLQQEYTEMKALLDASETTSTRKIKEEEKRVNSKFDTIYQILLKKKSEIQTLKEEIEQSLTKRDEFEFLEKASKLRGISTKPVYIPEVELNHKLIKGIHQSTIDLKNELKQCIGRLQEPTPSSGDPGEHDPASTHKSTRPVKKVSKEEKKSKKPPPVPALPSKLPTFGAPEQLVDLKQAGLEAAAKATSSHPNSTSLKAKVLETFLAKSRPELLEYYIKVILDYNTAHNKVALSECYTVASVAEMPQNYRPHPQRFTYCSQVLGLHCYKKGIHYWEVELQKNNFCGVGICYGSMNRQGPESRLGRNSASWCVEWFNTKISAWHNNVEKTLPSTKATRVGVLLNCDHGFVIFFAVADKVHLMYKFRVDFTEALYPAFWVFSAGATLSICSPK

[2] = target: T1, myc-tagged TRIM25 WT (tripartite …); assay: cell-based or functional assay

B1: FLAG-tagged ZAPL H191R (ZnF 4 mutant) (natural protein, human, UniProt Q7Z2W4-1 1-902, looked up)
chain: MADPEVCCFITKILCAHGGRMALDALLQEIALSEPQLCEVLQVAGPDRFVVLETGGEAGITRSVVATTRARVCRRKYCQRPCDNLHLCKLNLLGRCNYSQSERNLCKYSHEVLSEENFKVLKNHELSGLNKEELAVLLLQSDPFFMPEICKSYKGEGRQQICNQQPPCSRLHICDHFTRGNCRFPNCLRSRNLMDRKVLAIMREHGLNPDVVQNIQDICNSKHMQKNPPGPRAPSSHRRNMAYRARSKSRDRFFQGSQEFLASASASAERSCTPSPDQISHRASLEDAPVDDLTRKFTYLGSQDRARPPSGSSKATDLGGTSQAGTSQRFLENGSQEDLLHGNPGSTYLASNSTSAPNWKSLTSWTNDQGARRKTVFSPTLPAARSSLGSLQTPEAVTTRKGTGLLSSDYRIINGKSGTQDIQPGPLFNNNADGVATDITSTRSLNYKSTSSGHREISSPRIQDAGPASRDVQATGRIADDADPRVALVNDSLSDVTSTTSSRVDDHDSEEICLDHLCKGCPLNGSCSKVHFHLPYRWQMLIGKTWTDFEHMETIEKGYCNPGIHLCSVGSYTINFRVMSCDSFPIRRLSTPSSVTKPANSVFTTKWIWYWKNESGTWIQYGEEKDKRKNSNVDSSYLESLYQSCPRGVVPFQAGSRNYELSFQGMIQTNIASKTQKDVIRRPTFVPQWYVQQMKRGPDHQPAKTSSVSLTATFRPQEDFCFLSSKKYKLSEIHHLHPEYVRVSEHFKASMKNFKIEKIKKIENSELLDKFTWKKSQMKEEGKLLFYATSRAYVESICSNNFDSFLHETHENKYGKGIYFAKDAIYSHKNCPYDAKNVVMFVAQVLVGKFTEGNITYTSPPPQFDSCVDTRSNPSVFVIFQKDQVYPQYVIEYTEDKACVIS
notes: zinc finger antiviral protein (ZAP), long isoform ZAPL, cloned from pTRIP-TagRFP-hZAPL; source: ZAP KO 293T cells, transfected (pcDNA3.1-3XFLAG), in lysate; not shown: 3XFLAG, N-terminal, kept
ZAP-TRIM25 interaction (co-IP, FLAG-ZAP band over myc-TRIM25 band, ImageJ) [1]: 0.899 | JEV translation inhibition: fold inhibition of Renilla luciferase from a replication-defective JEV replicon, relative to empty plasmid, ZAP KO 293T cells, 4 h after replicon transfection [2]: 9.05 fold inhibition relative to empty plasmid transfection

From paper PMC9253567, “The Role of ZAP and TRIM25 RNA Binding in Restricting Viral Translation” (Frontiers in Cellular and Infection Microbiology, 2022)
